Results: patent US20040120923A1 (ARES TRADING S A, published 2004)

Target: T1, IL-18Rβ extracellular domain (his6-tagged, produced in Cos cells) (UniProt O95256 20-356, limits assumed)
T1 construct: extracellular domain; also called IL-18Rβ-ECD; signalling chain of IL-18R
T1 sequence (looked up): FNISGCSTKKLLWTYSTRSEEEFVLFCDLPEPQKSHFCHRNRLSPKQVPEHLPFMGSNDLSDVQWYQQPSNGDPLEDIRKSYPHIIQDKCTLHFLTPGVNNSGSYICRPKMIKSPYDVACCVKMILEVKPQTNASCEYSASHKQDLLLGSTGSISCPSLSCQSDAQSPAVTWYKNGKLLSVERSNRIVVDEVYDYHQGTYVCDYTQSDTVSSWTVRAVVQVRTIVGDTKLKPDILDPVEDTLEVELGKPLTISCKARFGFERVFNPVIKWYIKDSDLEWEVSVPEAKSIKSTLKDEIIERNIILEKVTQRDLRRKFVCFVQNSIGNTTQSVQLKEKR
Experiment: chemical cross-linking of the two extracellular domains without ligand, SDS-PAGE, Western blot with anti-his6 mAb against his6-tagged IL-18Rβ

B1: IL-18Rα extracellular domain (produced in Cos cells) (receptor, UniProt Q13478 22-329, looked up)
chain: CTSRPHITVVEGEPFYLKHCSCSLAHEIETTTKSWYKSSGSQEHVELNPRSSSRIALHDCVLEFWPVELNDTGSYFFQMKNYTQKWKLNVIRRNKHSCFTERQVTSKIVEVKKFFQITCENSYYQTLVNSTSLYKNCKKLLLENNKNPTIKKNAEFEDQGYYSCVHFLHHNGKLFNITKTFNITIVEDRSNIVPVLLGPKLNHVAVELGKNVRLNCSALLNEEDVIYWMFGEENGSDPNIHEEKEMRIMTPEGKWHASKVLRIENIGESNLNVLYNCTVASTGGTDTKSFILVRKADMADIPGHVFTR
notes: extracellular domain; It is glycosylated (Cos cell product); also called IL-18Rα-ECD
B1: no binding.
